Source: publication PMC9482650, “Quantitative fragmentomics allow affinity mapping of interactomes” (Nature Communications, 2022)

T1: MPDZ_10, O75970
T1 sequence (O75970 1624-1722, limits assumed, looked up): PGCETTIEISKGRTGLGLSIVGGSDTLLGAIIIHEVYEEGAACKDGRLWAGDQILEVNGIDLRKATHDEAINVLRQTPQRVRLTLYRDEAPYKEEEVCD

T2: MPDZ_5, O75970
T2 sequence (O75970 695-796, limits assumed, looked up): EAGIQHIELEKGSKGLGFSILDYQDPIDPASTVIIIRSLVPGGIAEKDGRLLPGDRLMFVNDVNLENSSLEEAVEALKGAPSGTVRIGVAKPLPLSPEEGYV

T3: DFNB31_2, Q9P202
T3 sequence (Q9P202 274-371, limits assumed, looked up): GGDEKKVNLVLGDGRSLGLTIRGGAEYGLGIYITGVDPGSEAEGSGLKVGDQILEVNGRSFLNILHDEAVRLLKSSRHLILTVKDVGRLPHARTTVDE

T4: GRIP1_3, Q9Y3R0
T4 sequence (Q9Y3R0 247-346, limits assumed, looked up): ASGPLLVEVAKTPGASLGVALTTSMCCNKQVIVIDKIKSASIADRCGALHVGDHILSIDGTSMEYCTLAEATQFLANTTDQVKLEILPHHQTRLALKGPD

T5: PDZD7_3, Q9H5P4
T5 sequence (Q9H5P4 857-944, limits assumed, looked up): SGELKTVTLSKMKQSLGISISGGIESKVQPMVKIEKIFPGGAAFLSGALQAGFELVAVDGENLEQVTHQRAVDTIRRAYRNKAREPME

T6: TX1BP3, O14907
T6 sequence (O14907 10-122, limits assumed, looked up): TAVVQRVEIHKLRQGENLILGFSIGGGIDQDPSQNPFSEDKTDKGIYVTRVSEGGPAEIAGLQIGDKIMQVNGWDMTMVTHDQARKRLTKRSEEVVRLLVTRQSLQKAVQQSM

T7: DLG3_1, Q92796
T7 sequence (Q92796 125-227, limits assumed, looked up): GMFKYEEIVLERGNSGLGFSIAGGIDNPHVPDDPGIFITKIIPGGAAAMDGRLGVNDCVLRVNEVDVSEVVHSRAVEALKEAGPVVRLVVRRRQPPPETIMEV

T8: APBA2_2, Q99767
T8 sequence (Q99767 654-744, limits assumed, looked up): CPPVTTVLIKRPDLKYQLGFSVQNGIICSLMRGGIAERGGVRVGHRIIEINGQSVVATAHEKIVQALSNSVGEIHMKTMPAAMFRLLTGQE

T9: SYNJ2BP, P57105
T9 sequence (P57105 8-110, limits assumed, looked up): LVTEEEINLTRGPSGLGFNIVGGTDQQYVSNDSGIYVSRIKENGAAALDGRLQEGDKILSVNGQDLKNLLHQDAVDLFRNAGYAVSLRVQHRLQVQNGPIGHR

T10: SNTG1, Q9NSN8
T10 sequence (Q9NSN8 52-150, limits assumed, looked up): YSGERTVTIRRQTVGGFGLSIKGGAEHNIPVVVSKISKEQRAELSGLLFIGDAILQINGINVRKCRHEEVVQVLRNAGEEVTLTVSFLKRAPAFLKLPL

B1: KCNT2, Q6UVM3 (peptide)
chain: GQDSREETQL
B2: TJP2, Q9UDY2 (peptide)
chain: QSARYRDTEL

Columns and labels:
Assay in all cases: holdup assay
Design in all cases: key: below the threshold = too weak to quantify, mostly under pKd 3.1 to 4
Conditions in all cases: plain residues with an end cap or a label only (N-terminal biotin on a linker: ttds)
DLG4_3, P78352 = molecular target: DLG4_3, P78352
IL16_1, Q14005 = molecular target: IL16_1, Q14005
MPDZ_10, O75970 = molecular target: T1, MPDZ_10, O75970
GORASP2, Q9H8Y8 = molecular target: GORASP2, Q9H8Y8
MPDZ_5, O75970 = molecular target: T2, MPDZ_5, O75970
GRID2IP_1, A4D2P6 = molecular target: GRID2IP_1, A4D2P6
TJP1_2, Q07157 = molecular target: TJP1_2, Q07157
HTRA2, O43464 = molecular target: HTRA2, O43464
DFNB31_2, Q9P202 = molecular target: T3, DFNB31_2, Q9P202
GRIP1_3, Q9Y3R0 = molecular target: T4, GRIP1_3, Q9Y3R0
PDZD7_3, Q9H5P4 = molecular target: T5, PDZD7_3, Q9H5P4
PTPN3, P26045 = molecular target: PTPN3, P26045
TX1BP3, O14907 = molecular target: T6, TX1BP3, O14907
DLG3_1, Q92796 = molecular target: T7, DLG3_1, Q92796
FRMPD2_3, Q68DX3 = molecular target: FRMPD2_3, Q68DX3
IL16_3, Q14005 = molecular target: IL16_3, Q14005
NHERF4_4, Q86UT5 = molecular target: NHERF4_4, Q86UT5
CASK, O14936 = molecular target: CASK, O14936
Inadl_8, Q8NI35 = molecular target: Inadl_8, Q8NI35
APBA2_2, Q99767 = molecular target: T8, APBA2_2, Q99767
PDZRN4_1, Q6ZMN7 = molecular target: PDZRN4_1, Q6ZMN7
GORASP1, Q9BQQ3 = molecular target: GORASP1, Q9BQQ3
GRIP2_3, Q9C0E4 = molecular target: GRIP2_3, Q9C0E4
LNX1_1, Q8TBB1 = molecular target: LNX1_1, Q8TBB1
SYNJ2BP, P57105 = molecular target: T9, SYNJ2BP, P57105
SNTG1, Q9NSN8 = molecular target: T10, SNTG1, Q9NSN8
MAGI1_2, Q96QZ7 = molecular target: MAGI1_2, Q96QZ7
GRIP2_5, Q9C0E4 = molecular target: GRIP2_5, Q9C0E4
GRIP2_5, Q9C0E4, sequence (Q9C0E4 544-642): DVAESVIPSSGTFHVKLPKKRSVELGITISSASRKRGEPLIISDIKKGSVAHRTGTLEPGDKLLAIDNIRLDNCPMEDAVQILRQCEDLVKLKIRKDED

CASK, O14936, sequence (O14936 487-570): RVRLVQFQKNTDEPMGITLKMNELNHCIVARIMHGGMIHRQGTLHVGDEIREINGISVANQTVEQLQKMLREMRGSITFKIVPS
LNX1_1, Q8TBB1, sequence (Q8TBB1 261-371): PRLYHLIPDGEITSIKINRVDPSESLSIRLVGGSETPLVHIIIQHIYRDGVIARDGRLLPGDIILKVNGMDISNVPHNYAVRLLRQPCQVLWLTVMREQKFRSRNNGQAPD
Inadl_8, Q8NI35, sequence (Q8NI35 1425-1530): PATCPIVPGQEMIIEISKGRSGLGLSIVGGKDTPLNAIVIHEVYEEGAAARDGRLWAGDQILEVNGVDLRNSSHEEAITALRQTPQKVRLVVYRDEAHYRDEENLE
GORASP1, Q9BQQ3, sequence (Q9BQQ3 1-208): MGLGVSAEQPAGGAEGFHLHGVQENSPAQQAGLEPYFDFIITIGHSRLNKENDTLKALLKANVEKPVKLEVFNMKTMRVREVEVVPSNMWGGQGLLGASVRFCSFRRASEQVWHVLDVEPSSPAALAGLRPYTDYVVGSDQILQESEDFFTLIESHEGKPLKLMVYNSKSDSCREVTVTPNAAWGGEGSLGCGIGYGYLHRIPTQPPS
GRIP2_3, Q9C0E4, sequence (Q9C0E4 238-339): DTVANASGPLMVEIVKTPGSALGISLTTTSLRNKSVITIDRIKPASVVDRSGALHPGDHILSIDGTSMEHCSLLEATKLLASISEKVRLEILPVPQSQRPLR
HTRA2, O43464, sequence (O43464 355-458): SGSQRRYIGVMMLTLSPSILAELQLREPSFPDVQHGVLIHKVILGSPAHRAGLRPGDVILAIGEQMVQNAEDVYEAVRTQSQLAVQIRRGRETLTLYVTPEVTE
MAGI1_2, Q96QZ7, sequence (Q96QZ7 456-580): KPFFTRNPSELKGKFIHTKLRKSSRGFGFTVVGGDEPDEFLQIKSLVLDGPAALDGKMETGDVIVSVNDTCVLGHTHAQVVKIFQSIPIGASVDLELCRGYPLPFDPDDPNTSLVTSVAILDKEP
NHERF4_4, Q86UT5, sequence (Q86UT5 464-550): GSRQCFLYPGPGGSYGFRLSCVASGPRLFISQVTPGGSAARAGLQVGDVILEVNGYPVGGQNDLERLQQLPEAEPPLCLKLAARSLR
GRID2IP_1, A4D2P6, sequence (A4D2P6 1-87): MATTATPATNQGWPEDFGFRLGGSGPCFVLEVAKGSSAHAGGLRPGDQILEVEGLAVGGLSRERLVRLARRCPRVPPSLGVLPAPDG
TJP1_2, Q07157, sequence (Q07157 181-274): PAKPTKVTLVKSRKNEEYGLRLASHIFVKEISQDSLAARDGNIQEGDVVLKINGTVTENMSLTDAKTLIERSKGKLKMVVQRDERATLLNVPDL
PTPN3, P26045, sequence (P26045 505-587): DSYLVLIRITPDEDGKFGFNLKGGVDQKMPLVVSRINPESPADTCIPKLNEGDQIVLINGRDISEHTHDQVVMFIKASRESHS
IL16_3, Q14005, sequence (Q14005 1107-1207): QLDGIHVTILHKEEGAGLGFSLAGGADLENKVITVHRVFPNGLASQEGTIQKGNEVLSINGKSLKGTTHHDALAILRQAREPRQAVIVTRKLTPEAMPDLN
FRMPD2_3, Q68DX3, sequence (Q68DX3 1073-1166): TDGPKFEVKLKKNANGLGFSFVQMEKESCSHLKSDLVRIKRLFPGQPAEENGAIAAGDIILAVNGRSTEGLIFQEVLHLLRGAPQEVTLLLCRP
DLG4_3, P78352, sequence (P78352 306-403): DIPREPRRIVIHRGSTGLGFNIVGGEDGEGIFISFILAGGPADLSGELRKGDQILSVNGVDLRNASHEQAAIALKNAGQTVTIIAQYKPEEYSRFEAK
PDZRN4_1, Q6ZMN7, sequence (Q6ZMN7 213-318): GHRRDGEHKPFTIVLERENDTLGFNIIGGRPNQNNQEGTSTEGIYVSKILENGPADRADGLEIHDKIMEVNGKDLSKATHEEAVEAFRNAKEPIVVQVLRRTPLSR
IL16_1, Q14005, sequence (Q14005 210-306): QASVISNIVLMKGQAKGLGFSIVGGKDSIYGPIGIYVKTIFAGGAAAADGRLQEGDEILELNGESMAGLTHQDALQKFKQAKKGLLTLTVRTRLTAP

Binder | pKd (DLG4_3, P78352) | pKd (IL16_1, Q14005) | pKd (MPDZ_10, O75970) | pKd (GORASP2, Q9H8Y8) | pKd (MPDZ_5, O75970) | pKd (GRID2IP_1, A4D2P6) | pKd (TJP1_2, Q07157) | pKd (HTRA2, O43464) | pKd (DFNB31_2, Q9P202) | pKd (GRIP1_3, Q9Y3R0) | pKd (PDZD7_3, Q9H5P4) | pKd (PTPN3, P26045) | pKd (TX1BP3, O14907) | pKd (DLG3_1, Q92796) | pKd (FRMPD2_3, Q68DX3) | pKd (IL16_3, Q14005) | pKd (NHERF4_4, Q86UT5) | pKd (CASK, O14936) | pKd (Inadl_8, Q8NI35) | pKd (APBA2_2, Q99767) | also measured
B1 | below the threshold | below the threshold | below the threshold | below the threshold | below the threshold | below the threshold | below the threshold | below the threshold | below the threshold | below the threshold | 4.47 | 4.9 | 3.83 | below the threshold | below the threshold | below the threshold | below the threshold | below the threshold | below the threshold | below the threshold | pKd (PDZRN4_1, Q6ZMN7): 4.97; pKd (GORASP1, Q9BQQ3): 3.75; pKd (GRIP2_3, Q9C0E4): below the threshold; pKd (LNX1_1, Q8TBB1): below the threshold; pKd (SYNJ2BP, P57105): 4.62; pKd (SNTG1, Q9NSN8): 3.73; pKd (MAGI1_2, Q96QZ7): 4.5; pKd (GRIP2_5, Q9C0E4): below the threshold
B2 | below the threshold | below the threshold | below the threshold | below the threshold | below the threshold | 3.59 | below the threshold | below the threshold | below the threshold | below the threshold | 3.69 | 4.98 | 4.76 | below the threshold | below the threshold | below the threshold | 3.47 | below the threshold | below the threshold | below the threshold | pKd (PDZRN4_1, Q6ZMN7): 4.41; pKd (GORASP1, Q9BQQ3): below the threshold; pKd (GRIP2_3, Q9C0E4): below the threshold; pKd (LNX1_1, Q8TBB1): 3.58; pKd (SYNJ2BP, P57105): 5.1; pKd (SNTG1, Q9NSN8): 3.73; pKd (MAGI1_2, Q96QZ7): below the threshold; pKd (GRIP2_5, Q9C0E4): below the threshold
